Consider 2 compounds from PMC6533321 (EJNMMI Research, 2019).

Data set [1] can be described thus: Ex vivo biodistribution 60 min p.i. The following applies: female, NMRI-nude, mouse, in vivo, iv, total radioactivity. How it is done: (§1) A number of 2 × 10^6 MPC-mCherry cells were transplanted subcutaneously into the right shoulder of female NMRI-nude mice (8 to 10 weeks old, RjOrl:NMRI-Foxn1^nu /Foxn1^nu, Janvier Labs). […] Animals were sacrificed at 60 min post-injection (p.i.). […] The activity of the tissue samples was decay-corrected and calibrated by comparing the counts in tissue with the counts in aliquots of the injected radiotracer that had been measured in the γ-counter at the same time. The activity in the selected organs was expressed as percent-injected activity per organ (%IA) and the activity concentration in tissues and organs as standardised uptake value (SUV in [MBq activity/g tissue]/[MBq injected activity/g body weight]). Values are quoted as mean ± standard deviation for each group of animals.

Data set [2] has as its system MPC-mCherry tumour-bearing NMRI-nude mice. The experiment in a line: Ex vivo biodistribution 60 min p.i. As to conditions: female, mouse, in vivo, iv, 1 h. As for the experimental part: as §1
Data set [3] relates to patient with a well-differentiated NET. Put plainly: PET/CT in a patient with well-differentiated NET. The following applies: human, in vivo. How it is done: Despite octreotide therapy, the disease was progressing, and in 2015, the patient was treated with peptide receptor radionuclide therapy (PRRT), administering 5 GBq of [^90Y]Y-DOTA-TOC. […] Written informed consent was obtained from the patient in accordance with paragraph 37 of the updated Declaration of Helsinki, ‘Unproven Interventions in Clinical Practice’, and in accordance with the German Medical Products Act AMG §13 2b.

The subject of another data set is normal liver. The following applies: in vivo; cited from earlier work.
The target in the next data set is T1, hSST2 (Homo sapiens, UniProt P30874).
T1 construct: expressed in transfected cells; donated by Prof; S. Schultz, Jena
T1 sequence (P30874 whole entry): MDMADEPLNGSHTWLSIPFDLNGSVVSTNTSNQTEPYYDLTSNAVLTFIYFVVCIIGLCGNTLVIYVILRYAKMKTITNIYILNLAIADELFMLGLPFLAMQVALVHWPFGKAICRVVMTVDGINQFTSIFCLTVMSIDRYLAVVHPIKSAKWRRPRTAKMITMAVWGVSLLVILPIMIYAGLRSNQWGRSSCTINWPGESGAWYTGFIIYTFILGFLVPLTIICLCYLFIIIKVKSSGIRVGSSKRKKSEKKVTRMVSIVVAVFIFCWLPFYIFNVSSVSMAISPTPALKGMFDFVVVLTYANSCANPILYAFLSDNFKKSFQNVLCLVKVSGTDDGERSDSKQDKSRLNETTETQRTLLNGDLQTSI
The experiment in a line: Competition binding against [^125I-Tyr^25]LTT-SS28 in HEK293-hSST2 cell membranes. As to conditions: mean ± sd, read-out: IC50 (displacement of [^125I-Tyr^25]LTT-SS28). How it is done: (§2) The HEK293 cell line was transfected to stably express each of the hSST2/3/5 and the resultant HEK293-hSST2/3/5 cells used for receptor affinity assessments were donated by Prof. S. Schultz (Institute of Pharmacology and Toxicology, University Hospital, Friedrich Schiller University Jena, Germany). Cells were cultured at 37 °C and 5% CO2 in Dulbecco’s modified Eagle’s medium containing 10% fetal bovine serum, 100 U/mL penicillin, […] G418, as previously described. Culture reagents were from Gibco BRL, Life Technologies, and Biochrom KG Seromed.
(§3) [^125I-Tyr^25]LTT-SS28 served as radioligand and LTT-SS28 ([Leu^8,DTrp^22,Tyr^25]SS28) as reference compound [28, 30, 32]. Briefly, radioligand (70 μL, 50 pM corresponding to ≈ 40,000 cpm), test peptide (30 μL solution of increasing concentrations, 10^− 5–10^− 13 M), and membrane homogenates (200 μL) were added to each assay tube (total volume of 300 μL in binding solution: 50 mM HEPES pH 7.4, 1% BSA, 5.5 mM MgCl2, 35 μM bacitracin) in triplicates for each concentration point. Samples were incubated for 60 min at 22 °C in an Incubator-Orbital Shaker unit (MPM Instr. SrI). […]

The next data set concerns the target T2, hSST3 (Homo sapiens, UniProt P32745).
T2 construct: expressed in transfected cells; donated by Prof; S. Schultz, Jena
Put plainly: Competition binding against [^125I-Tyr^25]LTT-SS28 in HEK293-hSST3 cell membranes. As to conditions: mean ± sd, read-out: IC50 (displacement of [^125I-Tyr^25]LTT-SS28). How it is done: as §2
[^125I-Tyr^25]LTT-SS28 served as radioligand and LTT-SS28 ([Leu^8,DTrp^22,Tyr^25]SS28) as reference compound [28, 30, 32]. Briefly, radioligand (70 μL, 50 pM corresponding to ≈ 40,000 cpm), test peptide (30 μL solution of increasing concentrations, 10^− 5–10^− 13 M), and membrane homogenates (200 μL) were added to each assay tube (total volume of 300 μL in binding solution: 50 mM HEPES pH 7.4, 1% BSA, 5.5 mM MgCl2, 35 μM bacitracin) in triplicates for each concentration point. Samples were incubated for 60 min at 22 °C in an Incubator-Orbital Shaker unit (MPM Instr. SrI). […] Filters were collected, and their activity measured in a γ-counter (automated well-type multisample gamma counter; NaI(Tl) 3″ crystal, Canberra Packard Auto-Gamma 5000 series instrument).

The target in another data set is hSST5 (Homo sapiens, UniProt P35346). Put plainly: Competition binding against [^125I-Tyr^25]LTT-SS28 in HEK293-hSST5 cell membranes. As to conditions: mean ± sd, read-out: IC50 (displacement of [^125I-Tyr^25]LTT-SS28). How it is done: as §2, §3
Sequence of hSST5 (P35346 whole entry): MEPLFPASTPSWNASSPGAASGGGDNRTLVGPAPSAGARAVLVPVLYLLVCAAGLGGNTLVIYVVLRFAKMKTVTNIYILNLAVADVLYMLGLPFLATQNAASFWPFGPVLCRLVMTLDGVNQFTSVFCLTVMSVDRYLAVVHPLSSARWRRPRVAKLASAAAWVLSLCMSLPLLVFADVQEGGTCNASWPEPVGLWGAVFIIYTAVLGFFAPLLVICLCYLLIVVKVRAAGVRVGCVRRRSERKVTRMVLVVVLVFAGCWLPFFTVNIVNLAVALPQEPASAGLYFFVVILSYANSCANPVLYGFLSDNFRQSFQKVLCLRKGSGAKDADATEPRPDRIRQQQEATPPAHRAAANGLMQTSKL

Residues, ends and D or L forms follow the SMILES beside them.

T2 sequence (P32745 whole entry): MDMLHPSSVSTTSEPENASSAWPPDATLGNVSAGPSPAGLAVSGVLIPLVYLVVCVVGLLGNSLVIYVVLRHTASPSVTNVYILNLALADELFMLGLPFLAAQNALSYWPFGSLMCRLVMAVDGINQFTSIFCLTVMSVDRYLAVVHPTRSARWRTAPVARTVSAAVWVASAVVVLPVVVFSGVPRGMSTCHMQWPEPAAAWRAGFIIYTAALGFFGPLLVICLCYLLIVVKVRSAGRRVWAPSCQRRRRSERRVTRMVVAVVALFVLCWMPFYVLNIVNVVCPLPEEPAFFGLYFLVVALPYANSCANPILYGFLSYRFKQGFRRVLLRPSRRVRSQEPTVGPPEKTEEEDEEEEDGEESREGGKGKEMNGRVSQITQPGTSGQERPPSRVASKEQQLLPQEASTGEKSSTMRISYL

`C[C@@H](O)[C@@H]1NC(=O)[C@H](CCCCN)NC(=O)[C@@H](Cc2c[nH]c3ccccc23)NC(=O)[C@H](Cc2ccc(O)cc2)NC(=O)[C@@H](NC(=O)[C@@H](Cc2ccccc2)NC(=O)CN2CCN(CC(=O)O)CCN(CC(=O)O)CCN(CC(=O)O)CC2)CSSC[C@@H](C(=O)N[C@H](CO)[C@@H](C)O)NC1=O` [[^68Ga]Ga-DOTA-TOC, metal not drawn]: the SUV at 1 h in data set [1] (Blood radioactivity concentration) came out at 0.06 ± 0.01 SUV. The tissue uptake dose at 1 h in data set [1] (Brain uptake) was 0.02 ± 0.01 %ID; in data set [1] (Femur uptake), 0.04 ± 0.04 %ID; in data set [1] (Kidneys uptake), 3.34 ± 0.87 %ID; in data set [1] (Liver uptake) it was 0.45 ± 0.09 %ID; in data set [1] (Lung uptake) it was 0.12 ± 0.01 %ID; in data set [1] (Ovaries uptake), 0.02 ± 0.01 %ID. Besides, the tissue uptake dose at 1 h in data set [1] (Pancreas uptake) is 0.42 ± 0.06 %ID; in data set [1] (Stomach uptake), 1.34 ± 0.39 %ID; in data set [1] (Thyroid uptake), 0.01 %ID. Further, in data set [1] (Urine calc.), the dose excreted at 1 h is 83.3 ± 3.73%. For the same compound, the Intestine uptake in data set [2] is 2.11±1.33 %IA. Further, the Tumour radioactivity concentration in data set [2] worked out at 4.52 ± 1.96 SUV. The Tumour uptake in data set [2] amounted to 2.40±1.94 %IA. The “SUV, blood” value in data set [3] is 2.0 SUV. In addition, the “SUV, liver” value in data set [3] came out at 23.1 SUV. For the same compound, in data set [3], the “SUV, pituitary” value was determined as 23.7 SUV. The “SUV, target lesion” value in data set [3] is 71.1 SUV. Moreover, the “SUVmax of the liver, previous value reported” value in the data set with normal liver is recorded as 12.8 ± 3.6.
The term IC50 denotes the point on the concentration scale where inhibition reaches its midpoint. For the compound `CC(C)C[C@H](NC(=O)[C@H](C)NC(=O)[C@@H]1CCCN1C(=O)[C@H](CC(N)=O)NC(=O)[C@H](CO)NC(=O)[C@H](CC(N)=O)NC(=O)[C@H](C)NC(=O)[C@@H](N)CO)C(=O)N[C@@H](C)C(=O)N1CCC[C@H]1C(=O)N[C@@H](CCCN=C(N)N)C(=O)N[C@@H](CCC(=O)O)C(=O)N[C@@H](CCCN=C(N)N)C(=O)N[C@@H](CCCCN)C(=O)N[C@@H](C)C(=O)NCC(=O)N[C@H]1CSSC[C@@H](C(=O)O)NC(=O)[C@H](CO)NC(=O)[C@H]([C@@H](C)O)NC(=O)[C@H](Cc2ccc(O)cc2)NC(=O)[C@H]([C@@H](C)O)NC(=O)[C@H](CCCCN)NC(=O)[C@@H](Cc2c[nH]c3ccccc23)NC(=O)[C@H](Cc2ccccc2)NC(=O)[C@H](Cc2ccccc2)NC(=O)[C@H](CC(N)=O)NC(=O)[C@H](CCCCN)NC1=O` [LTT-SS28] (HELM PEPTIDE1{S.A.N.S.N.P.A.L.A.P.R.E.R.K.A.G.C.K.N.F.F.[dW].K.T.Y.T.S.C}$PEPTIDE1,PEPTIDE1,17:R3-28:R3$$$V2.0), the IC50 at hSST2 came to 0.05 ± 0.01 nM; on hSST3, 0.09 ± 0.01 nM; at hSST5, 0.17 ± 0.03 nM.
